assay: yeast display, Sf9 membrane polyspecificity reagent, FACS + sequencing; frameworks hold sequencing errors
How it was run: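 Nanobodies from a synthetic yeast display library (Saccharomyces cerevisiae BJ5465), induced 36–48 hours with galactose, were stained 1 hour at 4 °C with 10% biotinylated, detergent-solubilized Sf9 membrane reagent, enriched on streptavidin microbeads, then FACS-sorted. Anti-HA (expression) and streptavidin (reagent binding) fluorescence set low and high (top ~1%) gates. Polyreactivity labels come from the gate of origin. Genes were colony-PCR amplified, MiSeq 2 × 250 sequenced and filtered by CDR length.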

| Sequence | polyreactivity (PSR sort gate) |
| --- | --- |
| QVQLVESGGGLVQAGGSLRLTCAASGGTFRLYAMGWYRQAPGKERELVAAISSTGSTYYAASVKGRFTISRDNAKNTVYLQMNSLKPEDTAVYYCNAKLPVTSLKFDYYYWGQGTQVTVSS | high polyreactivity |
| QVQLVESGGGLVQAGGSLRLTCAASGIIFKLYAMGWYRQAPGKEREFVATITKTGGRTYYADSVKGRFTISRDNAKNTVYLQMNSLKPEDTAVDYCAARRVNGKMYYWGQGTQVTVSS | high polyreactivity |
| QVQLVESGGGLVQAGGSLRLTCAASGITFFQYAMGWYRQAPGKERELVAAITWSGGDTYYADSVKGRFTISRDNAKITVYLQMNSLKPEDTAVYYCAAEYVVQYYVYGYTLGYDYWGQGTQVTVSS | high polyreactivity |
| QVQLVESGGGLVQAGGSLRLTCAASGITFTSYVMGWYRQAPGKERELVAAIRWSGGRTYYADSVKGRFTISRDNAKNSVYLQMNSLKPEDTAVYYCNRVTRSHVDYWGQGTQVTVSS | high polyreactivity |
| QVQLVESGGGLVQAGGSLRLTCAASGITFYSYAMGWYRQAPGKERELVAAITRSGGSTYYADSVKGRFTISRDNAKNTVYLQMNSLKPEDTAVYYCAADEGRVFSGGYDYWGQGTQVTVSS | high polyreactivity |
| QVQLVESGGGLVQAGGSLRLTCAASGLIFFTPYALGWYRQAPGTESELVAVITWRGASTYYADSVKGRFTISRDNAKHTVYFQMNSLKPEDTAVYYCAAKLCSVWKESYDSWGQGTQVTVSS | low polyreactivity |
| QVQLVESGGGLVQAGGSLRLTCAASGLILDGYAMGWYRQAPGKERELVAAITRSGGRTYYADSVKGRFTISRDNAKNTVYLQMNSLKPEDTAVDYCAADTYRYHLIATDDYWGQGTQVTVSS | high polyreactivity |
| QVQLVESGGGLVQAGGSLRLTCAASGLISTPNALGWYRQAPGKEREFVASISSRGGSTYYADSVKGRFTISRDNAMNTVYLQMNSLKPEDTAVYYCAADAYREFYYEYYYWGQGTQVTVSS | low polyreactivity |
| QVQLVESGGGLVQAGGSLRLTCAASGLTFPKYAMGWYRQAPGKERELVAAITQRGGSTYYADSVKGRFTISRDNAKNTVYLQMNSLKPEDTAVYYCNARRRDYNNRREFDYWGQGTQVTVSS | high polyreactivity |
| QVQLVESGGGLVQAGGSLRLTCAASGLTFRSYTMRWYRQAPGTERELVAAITFRGGSTYYADSLKGRFTISRDNAKNTVYLQMNSLKPEDTAVYYSAAVAIRRSVPVPRFDYWGQGTQVTVSS | high polyreactivity |
| QVQLVESGGGLVQAGGSLRLTCAASGLTFTTYALGWYRQAPGKERELVAAISRRGSRTYYADSVKGRFTISRDNAKNTVYLQMNSLKPEDTAVYYCNALTGSFKTYSFDYWGQGTQVTVSS | high polyreactivity |
| QVQLVESGGGLVQAGGSLRLTCAASGNIFISYAMGWYRQAPGKEMELVAAISRSGGSTYYADSVKGRFTISRDNEKNSVYLLMNSLKPEDTAVYYCAAYIGQGRYGSWGQGTQVNVSS | high polyreactivity |
| QVQLVESGGGLVQAGGSLRLTCAASGNTFNNNAMGWYRQAPGKERELVAAISGSGGSTYYADSVKGRFTISRDNAKNTVYLQMNSLKPEDTAVYYCAVRLVHGGKRYGYWGQGTQVTVSS | high polyreactivity |
| QVQLVESGGGLVQAGGSLRLTCAASGRIFKRYVMGWYRQAPGKERELVAAISVRGASTYYADSVKGRFTISRDHAKNTVYLQMNSLKPEDTAVYYCATAGYRLLDYWGQGTQVTVSS | high polyreactivity |
| QVQLVESGGGLVQAGGSLRLTCAASGRIFNYYAMGWYRQAPGKERELVAVITYSAGRTYYADSVKGRFTLSRDNAKNTVYLEMNSLKPEDTAVYYCNADGWVSVSKHYYYWGQGTQVTVSS | low polyreactivity |
| QVQLVESGGGLVQAGGSLRLTCAASGRIFTGYAMGWYRQAPWKERELVAAISRGSSTYADSVKGRFTISRDNAKNTVYLQRNSLKPEDTAVYYCAAKWRAADWWPRTSQYDYWGQGTQVTVSS | high polyreactivity |
| QVQLVESGGGLVQAGGSLRLTCAASGRIFYQYALGWYRQAPGKERELVSSITTSGGNTYYADSVKVRFTISRDNAKNTVYLQMNSLKPEDTAVYYCASRFNWRQWLYEYWGQGTQVSVSS | low polyreactivity |
| QVQLVESGGGLVQAGGSLRLTCAASGRNFPAYVMGWYRQAPGKERELVAGITSASSTYYADSVKGRFTISRDNAKNTVYLQMNSLKPEDTAVYYCAAVGYSVRQRYDYWGQGSQVTVSS | high polyreactivity |
| QVQLVESGGGLVQAGGSLRLTCAASGRTFHAYVMGWYRQAPGKERELVADISSGGDTYADSVKGRFTISRDNAKNTVYLQMNSLKPEDTAVYYCAVDVIQDESGYWGQGTQVTVSS | low polyreactivity |
| QVQLVESGGGLVQAGGSLRLTCAASGRTFRKNAMGWYRQAPGKERELVAAITGSSGTTYYADSVKGRFTISRDNAKNTVYLQMNSLKPEDTAVYYCATTVGDPGRRYYYWGQGTQVTVSS | high polyreactivity |
| QVQLVESGGGLVQAGGSLRLTCAASGRTFRQYAMGWYRQAPGKERELVAAIRTNGGRTYYADSVKGRFTISRDYAKNTVYLQFNSLKPEDTAVYYCAVYAVVQGVLFDYWGQGTQVTVSS | high polyreactivity |
| QVQLVESGGGLVQAGGSLRLTCAASGRTFRRNAMGWYRPAPAKERELVAAITSGGGTYYADSVKGRFTISRDNAKNTVYLQMNSLKPEDTAVYYCNKKTSAGRVDYWGQGTQVTVSS | high polyreactivity |
| QVQLVESGGGLVQAGGSLRLTCAASGRTFYIYTMGWYRQAPGKERELVAAISSSGDSTYYADSVKGRFTISRDNAKYTVYLQMISLKPEDTAVYYCAAEYAYHHVGFGYWGQGTQVTVSS | low polyreactivity |
| QVQLVESGGGLVQAGGSLRLTCAASGRTFYYYAMGWYRKAPGKERELVAAIDSDGSTTYADSVKGRFTISRDNAKNTVYLQINSLKPEDTAVYYCAAAFPTYRHYYWGQGTQVTVSS | low polyreactivity |
| QVQLVESGGGLVQAGGSLRLTCAASGRTLAWYTMGWYRQAPGKERELVAAISGSGGSTYYADSVKGRFTISRDNAKNTVYFQINRLKPEDTAVYYCSLRVDSYYGHTRYYYWGQGTQVTLSS | high polyreactivity |
| QVQLVESGGGLVQAGGSLRLTCAASGRTLNPYAMGWYRQAPGKERELVAAITWRGGSTYYADSVKGRFTISRDNAKNTVYLQMNSLKPEDTAVYYCAAREYYYPYYYWGQGTQVTVSS | high polyreactivity |
| QVQLVESGGGLVQAGGSLRLTCAASGRTYNLYAMGWSRQAPGKERELVAAISSSTDSTYYAYSVKGRFTISRDNAKITVYLEMNSLKPEDTSVYYFAARRPSYPRYGYWGQGTQVTVSS | high polyreactivity |
| QVQLVESGGGLVQAGGSLRLTCAASGSIFEPYTKGWYRQAPAKERELVAAITGSGGSTFYADSVKARFTISRDNAKNTVYLQMNSLKPEDTAVYYCNANAYPYTDVDYWGQGTQVTVSS | low polyreactivity |
| QVQLVESGGGLVQAGGSLRLTCAASGSIFEYNGMGWYRQAPGKERELVAAITTTGTTDYADSVKGRFTISRDNAKNTVYLQMNSLKPEDTAVDYCAAEYTYYYTGEYDYWGQGTQVTVSS | low polyreactivity |
| QVQLVESGGGLVQAGGSLRLTCAASGSIFISYHMGWYRQAPGKERELVAAIRSRVGSTYYSDSVKGRFTISRDNAKNPVYFQMNCLKPEDPAVYYCAAERSFSRFTTYDYWGQGTQVTVSS | low polyreactivity |

Source: the nanobody polyreactivity screen of Harvey et al. (2022)
